Source: IntAct's records for PubMed 25107275

Biological target: snx9_human SNX9 (UniProt Q9Y5X1)
Sequence (Q9Y5X1 whole entry): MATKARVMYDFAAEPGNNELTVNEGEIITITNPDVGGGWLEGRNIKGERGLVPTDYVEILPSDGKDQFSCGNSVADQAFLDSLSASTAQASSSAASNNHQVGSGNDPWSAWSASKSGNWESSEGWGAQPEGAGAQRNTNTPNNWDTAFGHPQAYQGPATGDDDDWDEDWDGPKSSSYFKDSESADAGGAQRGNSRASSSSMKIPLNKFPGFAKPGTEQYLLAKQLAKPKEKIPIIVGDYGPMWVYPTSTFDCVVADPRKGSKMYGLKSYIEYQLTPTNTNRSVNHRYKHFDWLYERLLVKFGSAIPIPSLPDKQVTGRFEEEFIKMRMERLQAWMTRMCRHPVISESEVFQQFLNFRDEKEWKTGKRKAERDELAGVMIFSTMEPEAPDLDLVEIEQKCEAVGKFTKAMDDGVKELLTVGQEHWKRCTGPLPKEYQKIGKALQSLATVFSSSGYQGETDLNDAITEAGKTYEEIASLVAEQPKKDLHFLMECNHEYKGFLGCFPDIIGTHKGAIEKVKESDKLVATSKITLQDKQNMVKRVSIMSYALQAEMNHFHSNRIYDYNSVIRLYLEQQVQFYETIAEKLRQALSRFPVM

Chain of Inositol polyphosphate 5-phosphatase OCRL (Homo sapiens), Q01968 P177A;P178A;P181A (Q01968 whole entry P177A/P178A/P181A): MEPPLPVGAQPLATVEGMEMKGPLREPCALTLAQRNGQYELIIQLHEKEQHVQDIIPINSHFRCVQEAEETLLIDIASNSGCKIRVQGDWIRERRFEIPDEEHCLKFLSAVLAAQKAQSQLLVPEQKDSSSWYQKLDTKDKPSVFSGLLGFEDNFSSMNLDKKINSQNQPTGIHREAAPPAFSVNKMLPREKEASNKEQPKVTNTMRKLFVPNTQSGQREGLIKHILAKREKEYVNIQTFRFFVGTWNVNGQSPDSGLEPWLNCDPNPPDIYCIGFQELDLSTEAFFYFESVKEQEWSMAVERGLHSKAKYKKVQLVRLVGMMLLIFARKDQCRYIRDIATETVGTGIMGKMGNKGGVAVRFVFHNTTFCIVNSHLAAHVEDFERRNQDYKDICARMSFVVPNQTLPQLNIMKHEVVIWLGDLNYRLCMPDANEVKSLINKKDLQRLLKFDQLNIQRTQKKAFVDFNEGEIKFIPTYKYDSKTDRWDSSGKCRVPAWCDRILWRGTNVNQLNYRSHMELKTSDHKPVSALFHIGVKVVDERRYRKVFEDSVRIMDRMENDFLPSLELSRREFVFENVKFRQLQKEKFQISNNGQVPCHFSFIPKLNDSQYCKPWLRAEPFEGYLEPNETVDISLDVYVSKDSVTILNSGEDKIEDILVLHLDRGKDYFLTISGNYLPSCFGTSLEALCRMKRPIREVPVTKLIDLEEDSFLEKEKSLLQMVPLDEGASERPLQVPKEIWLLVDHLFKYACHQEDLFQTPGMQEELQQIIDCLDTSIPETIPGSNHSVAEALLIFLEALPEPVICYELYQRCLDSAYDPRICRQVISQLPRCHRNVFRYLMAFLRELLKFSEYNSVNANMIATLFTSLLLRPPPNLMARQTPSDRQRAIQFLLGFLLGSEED

Substance: Inositol polyphosphate 5-phosphatase OCRL (Homo sapiens), Q01968 P177A;P178A;P181A
- effect of a mutation on the interaction: disrupting interaction
